Source: patent US8198236B2, “Methods and compositions for the treatment of cancer” (Washington University, priority 2007, dated 2012)
Blank lines part the entries; values can stand above or below the molecule they belong to.

Key:
LRP5 = LRP5 (Homo sapiens, UniProt O75197); assay: 125I-DKK1 binding to LRP5; conditions: FIG. 10B
Method: (§1) In order to investigate the binding of Mesd polypeptide and an Mesd oligopeptide to either LRP5 or LRP6, binding assays were performed using ^125I-Mesd or ^125I-DKK1 (FIG. 10).

LRP6 [1] = molecular target: T1, LRP6 (Homo sapiens, UniProt O75581); assay: Competition for 125I-Mesd binding to cell surface LRP6
T1 construct: expressed in transfected cells; host or cells: human HT1080 cells, retroviral vector pLNCX2
T1 sequence (O75581 20-1613): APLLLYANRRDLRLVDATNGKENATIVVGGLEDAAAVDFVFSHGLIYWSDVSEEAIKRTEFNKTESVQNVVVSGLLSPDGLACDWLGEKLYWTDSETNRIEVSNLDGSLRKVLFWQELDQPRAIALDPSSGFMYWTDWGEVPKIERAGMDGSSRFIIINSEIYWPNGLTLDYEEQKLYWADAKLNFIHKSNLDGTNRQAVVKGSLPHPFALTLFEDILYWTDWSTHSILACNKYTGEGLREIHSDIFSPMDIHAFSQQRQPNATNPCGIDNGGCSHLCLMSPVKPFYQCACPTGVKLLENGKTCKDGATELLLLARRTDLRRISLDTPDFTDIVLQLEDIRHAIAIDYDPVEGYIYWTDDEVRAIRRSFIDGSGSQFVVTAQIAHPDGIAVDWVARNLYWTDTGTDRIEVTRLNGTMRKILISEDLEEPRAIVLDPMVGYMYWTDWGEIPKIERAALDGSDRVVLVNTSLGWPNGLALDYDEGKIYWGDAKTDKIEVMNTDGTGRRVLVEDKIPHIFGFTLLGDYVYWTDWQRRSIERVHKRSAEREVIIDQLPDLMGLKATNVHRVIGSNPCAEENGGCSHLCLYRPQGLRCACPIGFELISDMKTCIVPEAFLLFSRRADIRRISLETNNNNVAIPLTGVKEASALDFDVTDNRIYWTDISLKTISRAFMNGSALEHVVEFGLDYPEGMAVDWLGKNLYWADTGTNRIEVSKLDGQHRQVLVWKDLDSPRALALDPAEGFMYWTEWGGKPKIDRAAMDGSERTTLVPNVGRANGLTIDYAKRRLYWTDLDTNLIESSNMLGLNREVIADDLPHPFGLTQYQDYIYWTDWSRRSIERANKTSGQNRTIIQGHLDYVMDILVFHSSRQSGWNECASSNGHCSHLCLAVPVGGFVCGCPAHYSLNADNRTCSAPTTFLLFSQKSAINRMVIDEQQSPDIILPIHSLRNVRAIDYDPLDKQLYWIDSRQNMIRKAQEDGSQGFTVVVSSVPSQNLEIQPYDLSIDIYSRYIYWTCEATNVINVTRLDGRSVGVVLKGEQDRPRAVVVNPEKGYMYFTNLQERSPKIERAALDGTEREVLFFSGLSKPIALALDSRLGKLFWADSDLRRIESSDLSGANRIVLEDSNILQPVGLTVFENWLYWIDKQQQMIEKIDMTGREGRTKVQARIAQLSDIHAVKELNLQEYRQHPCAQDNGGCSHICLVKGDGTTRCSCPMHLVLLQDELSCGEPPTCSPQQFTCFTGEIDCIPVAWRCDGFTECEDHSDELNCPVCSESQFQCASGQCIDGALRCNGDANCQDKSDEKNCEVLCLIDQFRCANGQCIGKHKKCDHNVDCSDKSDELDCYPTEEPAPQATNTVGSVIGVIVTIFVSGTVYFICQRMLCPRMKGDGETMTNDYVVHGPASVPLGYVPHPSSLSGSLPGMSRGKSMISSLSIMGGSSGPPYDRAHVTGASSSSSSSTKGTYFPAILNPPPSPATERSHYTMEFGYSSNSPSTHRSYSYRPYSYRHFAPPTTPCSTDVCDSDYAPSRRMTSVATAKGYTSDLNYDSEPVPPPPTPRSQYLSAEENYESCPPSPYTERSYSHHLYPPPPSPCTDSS
Method: (§2) To examine whether Mesd binds with high affinity to most members of the LDLR family at the cell surface, we performed cell surface ligand binding experiments with cells stably transduced with LRP6 cDNA. Human HT1080 cells, which express undetectable levels of LRP6, were transduced with a viral vector alone (pLNCX2) or with vector containing LRP6 cDNA (Li, Y., Oncogene 23: 9129-9135, 2004) and used for ^125I-Mesd binding (FIG. 1A). ^125I-Mesd (5 nM) reached maximal binding after 2 hours incubation at 4° C. with LRP6-expressing HT1080 cells (FIG. 1A).
(§3) Cells (2×10^5) were seeded into 12-well dishes 1 day prior to assay. Ligand-binding buffer (minimal Eagle's medium containing 0.6% BSA with a different concentration of radioligand, 0.6 ml/well) was added to cell monolayers, in the absence or the presence of 500 nM unlabeled RAP or 500 nM unlabeled Mesd, followed with incubation for 0-4 hours at 4° C. Thereafter, overlying buffer containing unbound ligand was removed, and cell monolayers were washed and lysed in low-SDS lysis buffer (62.5 mM Tris-HCl pH 6.8, 0.2% SDS, 10% v/glycerol) and counted.
We performed binding of 5 nM ^125I-Mesd (5 nM) to cell surface LRP6 in the presence of various concentrations of excess unlabeled RAP or 500 nM unlabeled Mesd (FIG. 8B). RAP inhibited ^125I-Mesd binding in a dose-dependent manner with ˜60% inhibition achieved with 500 nM RAP, whereas the same concentration of unlabeled Mesd inhibited >90% of ^125I-Mesd binding (FIG. 8B). […] The lower affinity of RAP to cell surface LRP6 may also contribute to its lower efficiency in inhibition of Mesd binding.
In FIG. 8A, binding of ^125I-RAP (5 nM) to LRP6-transduced HT1080 cells and the control cells was carried out for 4 hours at 4° C. in the absence (total) or presence of 500 nM RAP, or 500 nM Mesd. In FIG. 8B, binding of^125I-Mesd (5 nM) to LRP6-transduced HT1080 cells was carried out for 2 hours at 4° C. in the absence (total) or presence of various concentrations of RAP or 500 nM Mesd. (C) LRP6-mediated ^125I-Mesd (5 nM) degradation was carried out for 4 hours at 37° C. in the absence or presence of 500 nM Mesd or 500 nM RAP. Values are the means of triple determinations with the s.d. indicated by error bars.
as §1

LRP6 [2] = molecular target: T1, LRP6; assay: 125I-Mesd cell surface binding to LRP6-transduced HT1080 cells; conditions: LRP6-transduced HT1080 cells
Method: as §2
(A) Time course of ^125I-Mesd (5 nM) binding to LRP6-transduced HT1080 cells and the control cells. Assay was carried out for the indicated periods at 4° C. in the absence (total) or presence of 500 nM Mesd (non-specific). (B) Saturation binding of ^125I-Mesd to LRP6-transduced HT1080 cells and the control cells. Assay was carried out at indicated concentrations for 3 hours at 4° C. in the absence (total) or presence (non-specific) of 500 nM Mesd. (C) Scatchard plots of data in B. All values are the average of triple determinations with the s.d. indicated by error bars.
as §3
To analyze the Mesd sequences that are required for Mesd to bind to mature LRP6 at the cell surface with high affinity, sequences were compared between mouse Mesd and its homologs from different species. […] We thus generated two truncated Mesd mutants lacking either the N-terminal region, MESD (12-195), or both the N-terminal and C-terminal regions, Mesd (12-155) (FIG. 3A). The ability of these mutants to bind to cell surface LRP6 was then assessed.
In this example, a truncated Mesd mutant containing the last 45 amino acids of C-terminal region was generated (FIG. 3A) and its binding affinity for LRP6 was then analyzed. […] (A) Binding analyses of ^125I-Mesd and its mutant Mesd (150-195) (5 nM) to LRP6-transduced HT1080 cells and control cells. (B) Binding analyses of ^125I-Mesd and its mutant Mesd (150-195) (5 nM) to LRP6-transduced HT1080 cells. Assays were carried out for 3 hours at 4° C. in the absence or presence of 500 nM Mesd or its mutant. Values are the means of triple determinations with the s.d. indicated by error bars.
LRP6-mediated Mesd uptake and degradation was investigated in the experiments illustrated in FIG. 7. (A) LRP6-mediated ^125I-Mesd (5 nM) degradation in LRP6-transduced HT1080 cells and control cells was carried out for 4 hours at 37° C. in the absence or presence of 500 nM Mesd. (B) ^125I-Mesd (5 nM) binding to LRP6-transduced HT1080 cells and the control cells was carried out for 4 hours at 4° C. in the absence or presence of 500 nM Mesd. Values are the means of triple determinations with the s.d. indicated by error bars.

Wnt signaling = assay: TCF/LEF-luc reporter assay in Wnt-3A-treated HEK293 cells; format: cell-based; conditions: Wnt3A conditioned medium plus 500 nM, 16 hours at 37° C.
Method: HEK293 cells were plated into six-well plates. For each well, 0.1 μg of the TOP-FLASHTCF luciferase construct (Upstate Biotechnology) was cotransfected with 0.8 μg Mesd-expressing vector, 0.8 μg Mesd mutant-expressing vector, or empty vector. A β-galactosidase-expressing vector (Promega, Madison, Wis.) was included as an internal control for transfection efficiency. After 48 hours, cells were lysed and both luciferase and β-galactosidase activities were determined with enzyme assay kits (Promega). The luciferase activity was determined with a luminometer using the Dual Luciferase Assay system (Promega). Luciferase activity was normalized to the activity of the β-galactosidase.
In these experiments, transfected cells were treated without Wnt-3A or with Wnt-3A plus the indicated inhibitors (Mesd and/or Dkk1) for 16 hours at 37° C. Wnt signaling was measured by quantifying the luciferase activity using a live cell imaging system.

LRP6 [3] = molecular target: T1, LRP6; assay: LRP6-mediated 125I-DKK1 degradation in LRP6-transduced HT1080 cells; format: cell-based; conditions: 500 nM unlabeled, 4 hours at 37° C.
Method: Ligand degradation was performed using the methods as described in Li, Y., et al., J. Biol. Chem. 275: 17187-17194, 2000. Briefly, 2×10^5 cells were seeded into 12-well dishes 1 day prior to assay. Pre-warmed assay buffer (minimal Eagle's medium containing 0.6% BSA with radioligand, 0.6 ml/well) was added to cell monolayers in the absence or the presence of unlabeled 500 nM RAP or 500 nM Mesd, followed by incubation for 4 hours at 37° C. Thereafter, the medium overlying the cell monolayers was removed and proteins were precipitated by addition of BSA to 10 mg/ml and trichloroacetic acid to 20%. […] After each time point, the plates were quickly placed on ice and the assay buffer was replaced with cold stop/strip solution. ^125I-anti-HA IgG that remained on the cell surface was stripped by incubation of cell monolayers with cold stop/strip solution for a total of 20 minutes (0.75 ml for 10 minutes, twice) and counted. Cell monolayers were then solubilized with low-SDS lysis buffer and counted. […] The fraction of internalized ^125I-anti-HA IgG after each time point was calculated and plotted.
RAP is a receptor antagonist for members of the LDLR family, and is able to inhibit the binding of most known ligands of the LDLR family members. […] Cell-surface-bound Myc-tagged DKK proteins were fixed and detected by immunofluorescence staining with anti-Myc antibody. […]

LRP6 [4] = molecular target: T1, LRP6; assay: LRP6-mediated 125I-Mesd degradation in LRP6-transduced HT1080 cells; format: cell-based; conditions: 500 nM unlabeled competitor, 4 hours at 37° C.
Method: Ligand degradation was performed using the methods as described in Li, Y., et al., J. Biol. Chem. 275: 17187-17194, 2000. Briefly, 2×10^5 cells were seeded into 12-well dishes 1 day prior to assay. Pre-warmed assay buffer (minimal Eagle's medium containing 0.6% BSA with radioligand, 0.6 ml/well) was added to cell monolayers in the absence or the presence of unlabeled 500 nM RAP or 500 nM Mesd, followed by incubation for 4 hours at 37° C. Thereafter, the medium overlying the cell monolayers was removed and proteins were precipitated by addition of BSA to 10 mg/ml and trichloroacetic acid to 20%. Degradation of radioligand was defined as the appearance of radioactive fragments in the overlying medium that were soluble in 20% trichloroacetic acid. Kinetic analysis of endocytosis LRP6-transduced HT1080 cells were plated in 12-well plates at a density of 2×10^5 cells/well and used after overnight culture. Cells were rinsed twice in ice-cold assay buffer (minimal Eagle's medium containing 0.6% BSA), and ^125I-anti-HA IgG was added at 1 nM final concentration in cold assay buffer (0.5 ml/well). The binding of ^125I-anti-HA IgG was carried out at 4° C. for 90 minutes with gentle rocking Unbound ^125I-anti-HA IgG was removed by washing cell monolayers three times with cold assay buffer. Ice-cold stop/strip solution (0.2 M acetic acid, pH 2.6, 0.1 M NaCl) was added to one set of plates without warming up and kept on ice. The remaining plates were then placed in a 37° C. water bath and 0.5 ml assay buffer prewarmed to 37° C. was quickly added to cell monolayers to initiate internalization. After each time point, the plates were quickly placed on ice and the assay buffer was replaced with cold stop/strip solution. ^125I-anti-HA IgG that remained on the cell surface was stripped by incubation of cell monolayers with cold stop/strip solution for a total of 20 minutes (0.75 ml for 10 minutes, twice) and counted. Cell monolayers were then solubilized with low-SDS lysis buffer and counted. […] The fraction of internalized ^125I-anti-HA IgG after each time point was calculated and plotted. […]

LRP6 [5] = molecular target: T1, LRP6; assay: 125I-RAP binding to LRP6-transduced HT1080 cells; conditions: 125I-RAP 5 nM, 4 hours at 4° C.
Method: as §3
Receptor-associated protein (RAP) binds with high affinity to LRP, megalin, VLDLR and apoER2, and with a lower affinity to the LDLR (Bu, G., Int. Rev. Cytol. 209, 79-116. 2001). To determine whether RAP and Mesd bind to identical, overlapping, or different sites on the receptors, we performed binding and competition analysis of these two chaperones with HT1080 cells stably expressing LRP6.
In FIG. 8A, binding of ^125I-RAP (5 nM) to LRP6-transduced HT1080 cells and the control cells was carried out for 4 hours at 4° C. in the absence (total) or presence of 500 nM RAP, or 500 nM Mesd. In FIG. 8B, binding of^125I-Mesd (5 nM) to LRP6-transduced HT1080 cells was carried out for 2 hours at 4° C. in the absence (total) or presence of various concentrations of RAP or 500 nM Mesd. […]

LRP6 [6] = molecular target: T1, LRP6; assay: 125I-DKK1 binding to LRP6; conditions: 500 nM unlabeled, 125I-DKK1 5 nM, 3 hours at 4° C.
Method: as §3
RAP is a receptor antagonist for members of the LDLR family, and is able to inhibit the binding of most known ligands of the LDLR family members. DKK1 is an LRP6-specific ligand and antagonist. […] In these experiments, Serum-free conditioned medium was harvested from HEK293 cells transiently transfected with cDNA for human Myc-DKK1 and allowed to bind to LRP6-transduced HT1080 cells (B,C) and control cells (A) in the absence (A,B) or presence (C) of 1 μM Mesd. Cell-surface-bound Myc-tagged DKK proteins were fixed and detected by immunofluorescence staining with anti-Myc antibody. (D) DKK1 binding to cell surface LRP6 is inhibited by Mesd. Binding of 125I-DKK1 (5 nM) to LRP6-transduced HT1080 cells or the control cells was carried out for 3 hours at 4° C. in the absence (total) or presence of 500 nM RAP or 500 nM Mesd. […]

LRP5, sequence (O75197 32-1615): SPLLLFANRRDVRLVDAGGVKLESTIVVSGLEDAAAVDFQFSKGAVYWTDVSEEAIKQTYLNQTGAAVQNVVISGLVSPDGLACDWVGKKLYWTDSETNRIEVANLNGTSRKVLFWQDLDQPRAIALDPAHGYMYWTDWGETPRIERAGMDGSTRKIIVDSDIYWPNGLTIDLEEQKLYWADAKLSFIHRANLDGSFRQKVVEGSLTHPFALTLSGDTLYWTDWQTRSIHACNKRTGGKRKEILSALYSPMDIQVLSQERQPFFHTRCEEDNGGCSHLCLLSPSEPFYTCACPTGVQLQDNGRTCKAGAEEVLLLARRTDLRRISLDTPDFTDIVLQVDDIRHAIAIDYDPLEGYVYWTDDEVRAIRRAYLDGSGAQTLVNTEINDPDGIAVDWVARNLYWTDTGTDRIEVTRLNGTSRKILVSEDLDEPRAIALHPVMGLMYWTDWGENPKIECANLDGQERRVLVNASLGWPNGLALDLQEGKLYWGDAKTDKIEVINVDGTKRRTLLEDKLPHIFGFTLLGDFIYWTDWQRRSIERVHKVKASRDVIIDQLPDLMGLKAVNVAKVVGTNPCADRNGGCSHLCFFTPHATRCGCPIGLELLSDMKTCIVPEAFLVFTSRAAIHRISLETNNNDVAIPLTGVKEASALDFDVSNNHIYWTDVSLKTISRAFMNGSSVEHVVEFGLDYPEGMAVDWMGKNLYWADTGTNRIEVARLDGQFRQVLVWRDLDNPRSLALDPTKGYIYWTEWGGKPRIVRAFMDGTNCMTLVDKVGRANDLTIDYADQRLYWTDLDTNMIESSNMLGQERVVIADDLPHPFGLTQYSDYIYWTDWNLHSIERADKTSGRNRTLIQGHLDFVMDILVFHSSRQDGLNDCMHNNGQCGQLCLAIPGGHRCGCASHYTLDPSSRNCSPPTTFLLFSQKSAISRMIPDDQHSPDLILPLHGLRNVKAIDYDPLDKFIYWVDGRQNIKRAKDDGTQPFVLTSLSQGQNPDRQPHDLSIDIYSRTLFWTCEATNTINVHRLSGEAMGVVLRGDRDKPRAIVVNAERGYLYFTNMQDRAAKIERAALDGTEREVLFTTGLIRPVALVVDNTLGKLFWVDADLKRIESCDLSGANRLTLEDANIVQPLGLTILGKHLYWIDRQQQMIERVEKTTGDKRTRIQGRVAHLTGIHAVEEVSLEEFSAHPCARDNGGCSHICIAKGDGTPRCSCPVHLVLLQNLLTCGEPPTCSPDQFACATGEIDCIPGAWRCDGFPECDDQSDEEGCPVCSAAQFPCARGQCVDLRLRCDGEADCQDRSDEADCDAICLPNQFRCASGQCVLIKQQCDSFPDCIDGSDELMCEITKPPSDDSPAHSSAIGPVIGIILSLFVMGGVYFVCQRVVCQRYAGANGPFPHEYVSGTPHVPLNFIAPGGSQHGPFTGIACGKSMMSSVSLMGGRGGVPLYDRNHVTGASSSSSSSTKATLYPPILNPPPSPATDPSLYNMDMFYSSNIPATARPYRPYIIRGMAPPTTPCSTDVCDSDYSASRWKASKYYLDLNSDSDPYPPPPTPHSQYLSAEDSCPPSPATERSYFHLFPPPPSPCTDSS

Reduction in binding of 125I-DKK1 to LRP5 (LRP5): small but significant reduction
Reduction of binding of 125I-Mesd to LRP6 (LRP6 [1]; FIG. 10C, compared with LRP5): even greater reduction
Molecule: KGGGSKEKNKTKPEKAKKKEGDPKPRASKEDNRAGSR [SEQ ID NO: 20]

Effect on increased 125I-DKK1 degradation of LRP6-expressing HT1080 cells (LRP6 [3]): not
Inhibition of 125I-Mesd degradation (LRP6 [4]): only partially
Increase of RAP binding in LRP6 expressing HT1080 cells compared to control cells (LRP6 [5]): ~20%
Effect on increased 125I-DKK1 binding of LRP6-expressing HT1080 cells (LRP6 [6]): not
Inhibition of 125I-Mesd binding to cell surface LRP6 (LRP6 [1]; 500 nM unlabeled competitor, 125I-Mesd 5 nM, 2 hours at 4° C.): ~60%
Molecule: RAP: Human recombinant 39 kDa receptor-associated protein, expressed in a GST expression vector [reference compound]

The next lines start with the molecule.

Molecule: QMYPGKGGGSKEKNKTKPEKAKKKEGDPKPRASKEDNRAGSRREDL [Mesd (150-195)]
Binding of truncated Mesd mutants to cell surface LRP6 (LRP6 [2]): necessary and sufficient for LRP6 binding
Inhibition of Wnt signaling (luciferase activity) (Wnt signaling): moderately inhibit

Molecule: KGGGSKEKNKTKPEKAKKKEGDRKPRASKEDNRAGSR [Mesd WT peptide]
Inhibition of Wnt signaling (luciferase activity) (Wnt signaling): moderately inhibit

B1: MESD (12-195): Truncated mouse Mesd mutant lacking the N-terminal region (protein)
chain: RKKKDIRDYNDADMARLLEQWEKDDDIEEGDLPEHKRPSAPIDFSKLDPGKPESILKMTKKGKTLMMFVTVSGNPTEKETEEITSLWQGSLFNANYDVQRFIVGSDRAIFMLRDGSYAWEIKDFLVSQDRCAEVTLEGQMYPGKGGGSKEKNKTKPEKAKKKEGDRKPRASKEDNRAGSRREDL
modifications: left off: small tags and cut ends
notes: Truncated mouse Mesd mutant lacking the N-terminal region
Binding of truncated Mesd mutants to cell surface LRP6 (LRP6 [2]): no effect on LRP6 binding

B2: Mesd (12-155): Truncated mouse Mesd mutant lacking both the N-terminal and C-terminal regions (protein)
chain: RKKKDIRDYNDADMARLLEQWEKDDDIEEGDLPEHKRPSAPIDFSKLDPGKPESILKMTKKGKTLMMFVTVSGNPTEKETEEITSLWQGSLFNANYDVQRFIVGSDRAIFMLRDGSYAWEIKDFLVSQDRCAEVTLEGQMYPGK
modifications: left off: small tags and cut ends
notes: Truncated mouse Mesd mutant lacking both the N-terminal and C-terminal regions
Binding of truncated Mesd mutants to cell surface LRP6 (LRP6 [2]): completely abolished LRP6 binding
